Experimental findings from patent US6653282B1, “Peptide Compositions which induce immune tolerance and methods of use” (priority 1996, dated 2003) are described below.

The target of experiment [1] is intercellular adhesion molecule (ICAM-1) (human, UniProt P05362 28-532). Briefly: cell-based or functional assay.
The target of experiment [2] is leukocyte function-associated antigen (LFA-1) (human, UniProt P20701 26-1170; P05107 23-769). Briefly: cell-based or functional assay.

Bridge positions count the residues as written; N and C are the ends. Square brackets hold non-standard residues; d marks the D form. Ends that are not written are not given here. Pen = CC(C)(S)[C@H](N)C(=O)O

Chain of intercellular adhesion molecule (ICAM-1) (P05362 28-532): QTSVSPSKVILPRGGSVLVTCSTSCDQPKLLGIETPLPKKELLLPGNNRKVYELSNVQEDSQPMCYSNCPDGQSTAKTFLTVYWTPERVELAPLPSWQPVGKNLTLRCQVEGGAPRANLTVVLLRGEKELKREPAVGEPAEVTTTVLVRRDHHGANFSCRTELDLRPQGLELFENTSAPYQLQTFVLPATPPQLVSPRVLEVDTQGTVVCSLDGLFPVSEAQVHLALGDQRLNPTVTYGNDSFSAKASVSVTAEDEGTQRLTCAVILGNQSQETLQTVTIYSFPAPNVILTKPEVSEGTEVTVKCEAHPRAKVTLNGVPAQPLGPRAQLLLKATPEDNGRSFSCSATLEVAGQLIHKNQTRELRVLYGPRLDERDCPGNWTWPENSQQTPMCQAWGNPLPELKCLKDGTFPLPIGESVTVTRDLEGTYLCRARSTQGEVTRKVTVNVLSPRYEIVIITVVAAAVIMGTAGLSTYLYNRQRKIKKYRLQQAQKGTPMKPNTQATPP
Chain of leukocyte function-associated antigen (LFA-1) (P20701 26-1170, chain 1 of 2): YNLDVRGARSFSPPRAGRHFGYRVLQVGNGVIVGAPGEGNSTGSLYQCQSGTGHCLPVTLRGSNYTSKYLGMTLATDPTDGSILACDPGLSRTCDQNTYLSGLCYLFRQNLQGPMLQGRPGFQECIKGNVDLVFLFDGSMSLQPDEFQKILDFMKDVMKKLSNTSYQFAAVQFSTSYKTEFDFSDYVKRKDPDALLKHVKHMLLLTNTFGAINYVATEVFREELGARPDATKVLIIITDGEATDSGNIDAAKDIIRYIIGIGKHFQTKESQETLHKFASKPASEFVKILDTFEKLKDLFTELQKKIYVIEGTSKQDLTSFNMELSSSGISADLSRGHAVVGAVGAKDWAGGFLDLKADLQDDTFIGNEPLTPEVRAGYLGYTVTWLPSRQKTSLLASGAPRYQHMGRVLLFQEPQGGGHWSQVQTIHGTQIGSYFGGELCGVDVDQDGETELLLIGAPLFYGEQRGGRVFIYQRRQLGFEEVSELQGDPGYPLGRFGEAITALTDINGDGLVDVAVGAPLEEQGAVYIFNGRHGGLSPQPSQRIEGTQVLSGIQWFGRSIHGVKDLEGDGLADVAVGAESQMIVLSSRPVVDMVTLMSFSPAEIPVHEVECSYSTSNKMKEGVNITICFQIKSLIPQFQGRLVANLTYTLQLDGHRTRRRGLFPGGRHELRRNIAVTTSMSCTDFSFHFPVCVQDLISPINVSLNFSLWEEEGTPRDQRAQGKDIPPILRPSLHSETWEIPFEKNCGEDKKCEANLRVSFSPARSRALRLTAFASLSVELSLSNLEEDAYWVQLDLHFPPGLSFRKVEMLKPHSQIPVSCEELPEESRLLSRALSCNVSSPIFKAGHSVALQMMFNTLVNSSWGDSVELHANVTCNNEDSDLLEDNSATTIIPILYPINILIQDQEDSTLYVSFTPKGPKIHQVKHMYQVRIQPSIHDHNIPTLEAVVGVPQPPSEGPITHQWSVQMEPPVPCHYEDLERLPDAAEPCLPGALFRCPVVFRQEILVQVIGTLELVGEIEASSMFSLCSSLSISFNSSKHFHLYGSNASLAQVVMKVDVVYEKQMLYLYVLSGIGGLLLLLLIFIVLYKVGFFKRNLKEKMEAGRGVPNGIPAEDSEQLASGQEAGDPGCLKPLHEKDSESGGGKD
Chain of leukocyte function-associated antigen (LFA-1) (P05107 23-769, chain 2 of 2): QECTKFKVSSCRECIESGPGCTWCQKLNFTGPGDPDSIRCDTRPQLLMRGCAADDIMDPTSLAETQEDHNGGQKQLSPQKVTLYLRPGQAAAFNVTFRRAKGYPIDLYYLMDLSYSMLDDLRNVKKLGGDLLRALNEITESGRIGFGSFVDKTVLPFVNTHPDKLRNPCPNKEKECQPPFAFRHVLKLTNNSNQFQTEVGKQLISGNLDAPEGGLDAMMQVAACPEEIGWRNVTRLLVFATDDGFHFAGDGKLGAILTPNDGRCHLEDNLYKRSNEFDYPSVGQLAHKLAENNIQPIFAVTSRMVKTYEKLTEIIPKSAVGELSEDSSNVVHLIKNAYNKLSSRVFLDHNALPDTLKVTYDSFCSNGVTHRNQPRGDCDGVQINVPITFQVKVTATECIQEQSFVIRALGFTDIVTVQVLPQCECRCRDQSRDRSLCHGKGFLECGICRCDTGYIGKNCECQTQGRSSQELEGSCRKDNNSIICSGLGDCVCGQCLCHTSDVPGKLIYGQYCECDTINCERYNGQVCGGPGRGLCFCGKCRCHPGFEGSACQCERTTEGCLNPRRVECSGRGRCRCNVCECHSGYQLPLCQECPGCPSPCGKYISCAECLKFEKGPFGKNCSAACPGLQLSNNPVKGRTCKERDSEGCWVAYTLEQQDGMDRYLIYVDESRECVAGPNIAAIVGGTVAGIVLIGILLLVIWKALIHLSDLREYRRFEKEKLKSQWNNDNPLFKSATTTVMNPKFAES

B1: LAB.2 (peptide)
peptide: GVDVDQDGETELIGAPLFYGEQRG
B1: the “Clumping Index” value in experiment [1] was 48 clumping index (0-100).

B2: cLAB-C (peptide)
peptide: [Pen]DSGNIDAAKDC
modifications: disulfide 1-12; not fully specified
Take B2: the “Clumping Index” value in experiment [1] was 80 clumping index (0-100).

B3: cLBE-C (peptide)
peptide: [Pen]DLRNVKKLGGC
modifications: disulfide 1-12; not fully specified
As to B3, in experiment [1], the “Clumping Index” value was 82 clumping index (0-100).

B4: LAB (peptide)
peptide: ITDGEATDSGNIDAAKDIIYIIGI
As for B4, the “Clumping Index” value in experiment [1] is 75 clumping index (0-100).

B5: IE (peptide)
peptide: DQPKLLGIETPLPKKELLLPGNNRK
B5: the “Clumping Index” value in experiment [2] is 63 clumping index (0-100).

B6: IB (peptide)
peptide: QTSVSPSKVILPRGGSVLVTG
B6: in experiment [2], the “Clumping Index” value is 56 clumping index (0-100).

B7: cLAB-R (peptide)
peptide: [Pen]AKDIIYIIGIC
modifications: disulfide 1-12; not fully specified
Consider B7, for which, in experiment [1], the “Clumping Index” value was 77 clumping index (0-100).

B8: cIB-R (peptide)
peptide: CLPRGGSVLVTC
modifications: disulfide 1-12; not fully specified
With B8, the “Clumping Index” value in experiment [2] is 73 clumping index (0-100).

B9: LBE (peptide)
peptide: DLSYSLDDLRNVKKLGGDLLRALNE
B9: in experiment [1], the “Clumping Index” value was 73 clumping index (0-100).

B10: EBL (peptide)
peptide: ENLARLLDGGLKKVNRLDDLSYSLD
Regarding B10, the “Clumping Index” value in experiment [1] was 100 clumping index (0-100).

B11: cLBE-L (peptide)
peptide: [Pen]DLSYSLDDLRC
modifications: disulfide 1-12; not fully specified
With B11, the “Clumping Index” value in experiment [1] is 75 clumping index (0-100).

B12: cLAB-L (peptide)
peptide: XITDGEATDSGC
modifications: not fully specified; cyclic: disulfide bridge between the amino-terminal penicillamine (Xaa in the Sequence Listing) or cysteine and the carboxy-terminal cysteine
In the case of B12, the “Clumping Index” value in experiment [1] was 78 clumping index (0-100).

B13: cLAB.2-L (peptide)
peptide: [Pen]GVDVDQDGETC
modifications: disulfide 1-12; not fully specified
Regarding B13, in experiment [1], the “Clumping Index” value is 50 clumping index (0-100).

B14: cIE-C (peptide)
peptide: [Pen]ETPLPKKELLC
modifications: disulfide 1-12; not fully specified
Regarding B14, in experiment [2], the “Clumping Index” value was 23 clumping index (0-100).

B15: cLBE-R (peptide)
peptide: [Pen]GGLLRALNEC
modifications: disulfide 1-11; not fully specified
On to B15, for which, in experiment [1], the “Clumping Index” value was 100 clumping index (0-100).

B16: cIB-C (peptide)
peptide: [Pen]PSKVILPRGGC
modifications: disulfide 1-12; not fully specified
With B16, the “Clumping Index” value in experiment [2] was 61 clumping index (0-100).

B17: cIB-L (peptide)
peptide: [Pen]QTSVSPSKVIC
modifications: disulfide 1-12; not fully specified
Consider B17, for which the “Clumping Index” value in experiment [2] was 61 clumping index (0-100).
